Laboratory results taken from the supplement of paper PMC10567573.

B1: NCF4 (parent)
chain: FVKILKDFPEEDDPTNWLRCYYYE

Variants of: B1
Experiment: protein stability index of a GFP-peptide fusion (GPS, HEK-293T) (PSI 1-6); higher = more stable
Settings: c terminus: a fixed tail appended
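Also: lentivirally expressed fusions sorted by FACS into six bins by GFP to DsRed ratio, PSI derived from sequencing read proportions per bin multiplied by bin number.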

Compared with F1M, F1N is higher in protein stability index: 2.11 for the first, 2.96 for the second.

Compared with F1P, F1Q is higher in protein stability index: 2.05 for the first, 2.56 for the second.

Compared with F1R, F1S is higher in protein stability index: 2.25 for the first, 2.55 for the second.

Going from F1T to F1V, the protein stability index falls from 2.6 to 2.21.

Compared with F1W, V2A is lower in protein stability index: 3.29 for the first, 1.88 for the second.

Compared with V2C, V2D is higher in protein stability index: 1.95 for the first, 2.05 for the second.

First: V2E
Second: V2G
The protein stability index of the first is higher: 3.02 for the first, 2.24 for the second.

Going from V2H to V2I, the protein stability index falls from 1.57 to 1.46.

Going from V2K to V2L, the protein stability index falls from 2.16 to 1.76.

First: V2M
Second: V2N
The protein stability index of the first is lower: 1.96 for the first, 2.11 for the second.

Going from V2P to V2Q, the protein stability index rises from 2.82 to 3.03.

First: V2R
Second: V2S
The protein stability index of the first is higher: 2.38 for the first, 1.62 for the second.

Compared with V2T, V2W is higher in protein stability index: 2.4 for the first, 3.35 for the second.

Compared with V2Y, K3A is higher in protein stability index: 2.08 for the first, 2.19 for the second.

Compared with K3C, K3D is higher in protein stability index: 1.26 for the first, 2.11 for the second.

Going from K3E to K3H, the protein stability index falls from 2 to 1.43.

First: K3N
Second: K3P
The protein stability index of the first is lower: 2.31 for the first, 2.45 for the second.

First: K3Q
Second: K3R
The protein stability index of the first is higher: 2.05 for the first, 1.17 for the second.

Going from K3S to K3T, the protein stability index rises from 2.32 to 2.48.

Compared with K3Y, I4A is higher in protein stability index: 1.01 for the first, 1.61 for the second.

First: I4D
Second: I4E
The protein stability index of the first is lower: 1.25 for the first, 1.65 for the second.

First: I4F
Second: I4G
The protein stability index of the first is higher: 3.08 for the first, 1.9 for the second.

First: I4H
Second: I4K
The protein stability index of the first is lower: 2.17 for the first, 3.09 for the second.

Going from I4L to I4M, the protein stability index rises from 2.02 to 2.39.

Compared with I4N, I4P is lower in protein stability index: 2.76 for the first, 2.15 for the second.

Compared with I4Q, I4S is higher in protein stability index: 2.15 for the first, 2.7 for the second.

First: I4T
Second: I4W
The protein stability index of the first is lower: 1.54 for the first, 3.72 for the second.

Going from L5A to L5D, the protein stability index rises from 1.02 to 2.1.

Going from L5E to L5F, the protein stability index falls from 1.96 to 1.86.

Going from L5H to L5I, the protein stability index falls from 3.08 to 1.6.

Going from L5N to L5P, the protein stability index rises from 1.68 to 2.95.

Going from L5R to L5T, the protein stability index rises from 2.09 to 2.17.

Compared with L5W, L5Y is higher in protein stability index: 1.06 for the first, 2.23 for the second.

Compared with K6D, K6E is higher in protein stability index: 1.96 for the first, 2.5 for the second.

Compared with K6F, K6I is lower in protein stability index: 2.93 for the first, 1.37 for the second.

First: K6L
Second: K6M
The protein stability index of the first is higher: 1.96 for the first, 1.65 for the second.

Compared with K6N, K6P is lower in protein stability index: 3.4 for the first, 1.56 for the second.

Compared with K6Q, K6R is lower in protein stability index: 1.97 for the first, 1.17 for the second.

First: K6S
Second: K6T
The protein stability index of the first is higher: 3.11 for the first, 1.95 for the second.

Going from K6V to D7C, the protein stability index rises from 3.01 to 4.49.

Compared with D7E, D7H is higher in protein stability index: 1 for the first, 1.77 for the second.

First: D7L
Second: D7P
The protein stability index of the first is lower: 2.16 for the first, 2.49 for the second.

First: D7Q
Second: D7V
The protein stability index of the first is lower: 1.07 for the first, 2.69 for the second.

Going from D7W to F8C, the protein stability index rises from 1.07 to 1.25.

First: F8E
Second: F8G
The protein stability index of the first is lower: 1.14 for the first, 1.18 for the second.

First: F8H
Second: F8I
The protein stability index of the first is higher: 3.3 for the first, 1.25 for the second.

First: F8K
Second: F8L
The protein stability index of the first is higher: 1.8 for the first, 1.15 for the second.

Compared with F8M, F8P is lower in protein stability index: 3.67 for the first, 1.68 for the second.

First: F8Q
Second: F8R
The protein stability index of the first is lower: 1.67 for the first, 1.69 for the second.

Compared with F8S, F8V is lower in protein stability index: 2.92 for the first, 2.59 for the second.

First: F8W
Second: F8Y
The protein stability index of the first is lower: 3.2 for the first, 4.09 for the second.

Compared with P9A, P9C is lower in protein stability index: 2.67 for the first, 1.26 for the second.

First: P9D
Second: P9E
The protein stability index of the first is higher: 1.85 for the first, 1.74 for the second.

Compared with P9F, P9I is higher in protein stability index: 1.1 for the first, 1.65 for the second.

Going from P9K to P9M, the protein stability index rises from 1.37 to 2.75.

Compared with P9N, P9R is lower in protein stability index: 2.15 for the first, 1.6 for the second.

Going from P9T to P9V, the protein stability index rises from 1.73 to 2.21.

Going from P9W to P9Y, the protein stability index rises from 1.27 to 1.38.

Compared with E10A, E10D is lower in protein stability index: 1.47 for the first, 1.16 for the second.

Compared with E10I, E10M is lower in protein stability index: 3.14 for the first, 2.93 for the second.

Compared with E10Q, E10R is lower in protein stability index: 2.48 for the first, 1.7 for the second.

Compared with E10S, E10T is higher in protein stability index: 1.77 for the first, 2.6 for the second.

Going from E10V to E11A, the protein stability index rises from 1.62 to 1.68.

Going from E11D to E11F, the protein stability index rises from 1.88 to 3.95.

Compared with E11H, E11I is lower in protein stability index: 3.15 for the first, 2.4 for the second.

First: E11K
Second: E11L
The protein stability index of the first is lower: 1.39 for the first, 2.74 for the second.

First: E11M
Second: E11Q
The protein stability index of the first is lower: 1.01 for the first, 2.98 for the second.

Going from E11R to E11S, the protein stability index falls from 1.75 to 1.71.

Compared with E11T, E11W is lower in protein stability index: 2.96 for the first, 2.04 for the second.

Going from E11Y to D12C, the protein stability index rises from 1.96 to 2.14.

First: D12E
Second: D12G
The protein stability index of the first is lower: 2.04 for the first, 2.33 for the second.

Going from D12H to D12K, the protein stability index falls from 1.52 to 1.41.

Compared with D12M, D12P is lower in protein stability index: 2.39 for the first, 1.03 for the second.

Going from D12Q to D12S, the protein stability index falls from 2.75 to 2.4.

Compared with D12T, D12Y is higher in protein stability index: 1.37 for the first, 2.35 for the second.

First: D13C
Second: D13E
The protein stability index of the first is lower: 1.96 for the first, 2.69 for the second.

Compared with D13F, D13G is lower in protein stability index: 3.57 for the first, 1.04 for the second.

Compared with D13H, D13I is lower in protein stability index: 2.54 for the first, 1.29 for the second.

First: D13M
Second: D13P
The protein stability index of the first is higher: 3.83 for the first, 1.4 for the second.

Compared with D13Q, D13R is lower in protein stability index: 2.12 for the first, 1.66 for the second.

Compared with D13S, D13T is higher in protein stability index: 2.46 for the first, 2.72 for the second.

Going from D13V to D13W, the protein stability index rises from 1.53 to 3.15.

First: D13Y
Second: P14A
The protein stability index of the first is higher: 2.81 for the first, 2.72 for the second.

For P14C, the protein stability index was 1.19.
